B1: KIF20A fragment (603-665) (domain or fragment, UniProt P97329 603-665, looked up)
chain: EQWCSERLDNQKELMEELYEEKLKILKESLTTFYQEQIQERDEKIEELETLLQEAKQQPAAQQ
notes: Parallel right-handed coiled-coil dimer with an inter-helical cysteine bridge; also called KIF20A-RBD; source: E. coli BL21 (DE3), co-expressed with m20, purified (Glutathione Sepharose 4B, rTEV cleavage, Ni-NTA); not shown: GST, N-terminal, cleaved

Experiments:
[1] = molecular target: GST-Myosin II-1148-1652 (human) (UniProt P35579); experiment: ELISA; solid-phase assay: 96-well plates coated with 10 µg GST-GFP, GST-Myosin II-1148-1652 or GST-RAB6A:GTP; 0-40 µg 6xHis-RAB6:GTP or 6xHis-KIF20A-529-665 added; 20 mM Hepes pH 7.5, 100 mM NaCl, 5 mM MgCl2; detection with anti-6xHis antibodies, absorbance at 450 nm
[2] = molecular target: the molecule itself; experiment: crystal structure; complex of RAB6A-Q72L-8-195 and KIF20A-603-665 at 10 mg/ml; 100 mM Hepes pH 7.4, 200 mM ammonium sulfate, 24% PEG 8K, 2% isopropanol, 17 °C; 2 Å

Row | Molecule | fold lower affinity than RAB6 and Myosin II-1148-1652 have for KIF20A-RBD-529-665 [1] | stoichiometry N [2]
1 | 6xHis-RAB6:GTP (from UniProt P20340 1-208) (natural protein) | 5 fold | 
2 | B1 |  | 2

Source: article PMC5665954, “Coupling fission and exit of RAB6 vesicles at Golgi hotspots through kinesin-myosin interactions” (Nature Communications, 2017)
